Experimental findings from patent publication US20140301990A1 are described below.

What all share (assay): cell_activity
The test system of data set [1] is TALEN 101540 (engineered). The conditions noted are these: pair with 101536, K562; 9.6 with 101537.
Data set [2] has as its system ZFN 16787 (TRBC) (engineered). Particulars: pair with 16783, K562 day 3; 15.6 day 10; Table 6 8.73 TRBC1, 8.68 TRBC2.
In data set [3] the test system is ZFN 22409 (TRBC) (engineered). The conditions noted are these: pair with 16783, K562 day 10.
Data set [4] relates to ZFN 22454 (TRBC) (engineered). Particulars: pair with 16783, K562 day 3; 12.1 day 10.
Data set [5] concerns ZFN 22449 (TRBC) (engineered). The conditions noted are these: pair with 16783, K562 day 3; 8.1 day 10.
The test system of data set [6] is TALEN 101537 (engineered). Particulars: pair with 101541, K562; 9.6 with 101540, 0.0 with 101539.
Data set [7] relates to TALEN 101511 (engineered). Particulars: pair with 101515, K562; 3.4 with 101514, 5.3 with 101516.
Data set [8] relates to TALEN 101516 (engineered). The conditions noted are these: pair with 101513, K562.
For data set [9], the system named is TALEN 101539 (engineered). Particulars: pair with 101536, K562; 0.0 with 101537.
The test system of data set [10] is TALEN 101515 (engineered). Particulars: pair with 101512, K562.
Data set [11] relates to TALEN 101514 (engineered). The conditions noted are these: pair with 101513, K562.
For data set [12], the system named is TALEN 101513 (engineered). Particulars: pair with 101516, K562; 5.9 with 101514, 8.3 with 101515.
The subject of data set [13] is TALEN 101536 (engineered). The conditions noted are these: pair with 101541, K562; 8.5 with 101539, 9.9 with 101540.
Data set [14] has as its system TALEN 101512 (engineered). Particulars: pair with 101516, K562; 5.3 with 101514, 8.9 with 101515.

In [1], “CTGGGTCCACTCGTCATTC (double strand) [101540 site]” yielded an activity of 9.9 % NHEJ.

Take “TCTCGGAGAATGACGAGTGGACCCAGGA (double strand) [TRBC 16787 site]”: the activity in [2] came out at 12.1 % NHEJ; in [3], 14.7 % NHEJ; in [4], 17.7 % NHEJ; in [5], 20.1 % NHEJ.

“CTGTCAAGTCCAGTTCTA (double strand) [101537 site]”: in data set [6], the activity was determined as 9.9 % NHEJ.

“GTGCTGTGGCCTGGAGCAA (double strand) [101511 site]” displayed an activity in [7] of 5.9 % NHEJ.

Sequence “GTTGAAGGCGTTTGCACATG (double strand) [101516 site]” registered an activity in data set [8] of 16.4 % NHEJ.

For “CTGGGTCCACTCGTCATTCT (double strand) [101539 site]”, the activity in data set [9] came out at 8.5 % NHEJ.

“GTTGAAGGCGTTTGCACATGC (double strand) [101515 site]” had an activity in data set [10] of 8.9 % NHEJ.

“TTGAAGGCGTTTGCACATGCA (double strand) [101514 site]” showed an activity in data set [11] of 5.9 % NHEJ.

In data set [12], “CTGTGGCCTGGAGCAACAA (double strand) [101513 site]” displayed an activity of 16.4 % NHEJ.

In data set [13], “TTCCGCTGTCAAGTCCAGTTC (double strand) [101536 site]” gave an activity of 15 % NHEJ.

“GTGCTGTGGCCTGGAGCAAC (double strand) [101512 site]”: the activity in [14] is 12 % NHEJ.
